Patent US20260049138A1 (Chugai, published 2026)
Numbering of substitutions follows the chain as printed. Names and notes keep the numbering of the source. Blank lines part the entries; values can stand above or below the binder they belong to.

Molecular target: T1, CD3ε homodimer protein (human, UniProt P07766 23-126, limits assumed, sulfo-tag or biotin label in the ECL assays; amine-coupled to the chip in SPR)
T1 construct: also called human CD3ε homodimer protein; CD3 (CD3ε)
Assay: SPR Biacore T200; CD3ε homodimer on CM4 chip;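 note: Single-residue variant antibodies injected as analyte over CD3ε homodimer immobilized by amine coupling, run at 25 °C in HBS-EP+ buffer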

T1 sequence (P07766 23-126 limits assumed): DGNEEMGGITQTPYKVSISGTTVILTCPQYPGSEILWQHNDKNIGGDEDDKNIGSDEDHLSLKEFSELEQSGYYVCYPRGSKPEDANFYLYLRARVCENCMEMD

B1: CE115HA000 N31F one-arm antibody (antibody, human IgG1, kappa, L234A L235A, N297A, name in Kabat numbering)
heavy: QVQLVESGGGVVQPGRSLRLSCAASGFTFSFAWMHWVRQAPGKGLEWVAQIKAKSNNYATYYAESVKGRFTISRDDSKNSLYLQMNSLKTEDTAVYYCRYVHYGAYYGVDAWGQGTTVTVSSASTKGPSVFPLAPSSKSTSGGTAALGCLVKDYFPEPVTVSWNSGALTSGVHTFPAVLQSSGLYSLSSVVTVPSSSLGTQTYICNVNHKPSNTKVDKKVEPKSCDKTHTCPPCPAPEAAGGPSVFLFPPKPKDTLMISRTPEVTCVVVDVSHEDPEVKFNWYVDGVEVHNAKTKPREEQYASTYRVVSVLTVLHQDWLNGKEYKCKVSNKALPAPIEKTISKAKGQPREPQVYTLPPSRCELTKNQVSLSCAVKGFYPSDIAVEWESNGQPENNYKTTPPVLDSDGSFFLVSKLTVDKSRWQQGNVFSCSVMHEALHNHYTQKSLSLSPDYKDDDDK
chain: EPKSSDKTHTCPPCPAPELLGGPSVFLFPPKPKDTLMISRTPEVTCVVVDVSHEDPEVKFNWYVDGVEVHNAKTKPREEQYNSTYRVVSVLTVLHQDWLNGKEYKCKVSNKALPAPIEKTISKAKGQPREPQVCTLPPSRDELTKNQVSLWCLVKGFYPSDIAVEWESNGQPENNYKTTPPVLDSDGSFFLYSKLTVDKSRWQQGNVFSCSVMHEALHNRYTQKSLSLSP
light: DIVMTQSPLSLPVTPGEPASISCRSSQSLVHSNRNTYLHWYQQKPGQAPRLLIYKVSNRFSGVPDRFSGSGSGTDFTLKISRVEAEDVGVYYCGQGTQVPYTFGQGTKLEIKRTVAAPSVFIFPPSDEQLKSGTASVVCLLNNFYPREAKVQWKVDNALQSGNSQESVTEQDSKDSTYSLSSTLTLSKADYEKHKVYACEVTHQGLSSPVTKSFNRGEC
- ratio of amounts bound Z=Y/X (altered form / CE115HA000): 0.62

B2: CE115HA000 N31Y one-arm antibody (antibody, human IgG1, kappa, L234A L235A, N297A, name in Kabat numbering)
heavy: B1 heavy with F31Y
chain: B1 chain
light: B1 light
- ratio of amounts bound Z=Y/X (altered form / CE115HA000): 0.64

B3: CE115HA000 N31G one-arm antibody (antibody, human IgG1, kappa, L234A L235A, N297A, name in Kabat numbering)
heavy: B1 heavy with F31G
chain: B1 chain
light: B1 light
- ratio of amounts bound Z=Y/X (altered form / CE115HA000): 0.39

B4: CE115HA000 N53I one-arm antibody (antibody, human IgG1, kappa, L234A L235A, N297A, name in Kabat numbering)
heavy: B1 heavy with F31N, N56I
chain: B1 chain
light: B1 light
- ratio of amounts bound Z=Y/X (altered form / CE115HA000): 0.68

B10: CE115HA000 N53D one-arm antibody (antibody, human IgG1, kappa, L234A L235A, N297A, name in Kabat numbering)
heavy: B1 heavy with F31N, N56D
chain: B1 chain
light: B1 light
- ratio of amounts bound Z=Y/X (altered form / CE115HA000): 0.39

B11: CE115HA000 N31W one-arm antibody (antibody, human IgG1, kappa, L234A L235A, N297A, name in Kabat numbering)
heavy: B1 heavy with F31W
chain: B1 chain
light: B1 light
- ratio of amounts bound Z=Y/X (altered form / CE115HA000): 0.63

B12: CE115HA000 N31R one-arm antibody (antibody, human IgG1, kappa, L234A L235A, N297A, name in Kabat numbering)
heavy: B1 heavy with F31R
chain: B1 chain
light: B1 light
- ratio of amounts bound Z=Y/X (altered form / CE115HA000): 1.14

B13: CE115HA000 N53A one-arm antibody (antibody, human IgG1, kappa, L234A L235A, N297A, name in Kabat numbering)
heavy: B1 heavy with F31N, N56A
chain: B1 chain
light: B1 light
- ratio of amounts bound Z=Y/X (altered form / CE115HA000): 0.7

B16: CE115HA000 N31I one-arm antibody (antibody, human IgG1, kappa, L234A L235A, N297A, name in Kabat numbering)
heavy: B1 heavy with F31I
chain: B1 chain
light: B1 light
- ratio of amounts bound Z=Y/X (altered form / CE115HA000): 0.81

B20: CE115HA000 N53Q one-arm antibody (antibody, human IgG1, kappa, L234A L235A, N297A, name in Kabat numbering)
heavy: B1 heavy with F31N, N56Q
chain: B1 chain
light: B1 light
- ratio of amounts bound Z=Y/X (altered form / CE115HA000): 1.1

B21: CE115HA000 N53W one-arm antibody (antibody, human IgG1, kappa, L234A L235A, N297A, name in Kabat numbering)
heavy: B1 heavy with F31N, N56W
chain: B1 chain
light: B1 light
- ratio of amounts bound Z=Y/X (altered form / CE115HA000): 0.88

B22: CE115HA000 N53K one-arm antibody (antibody, human IgG1, kappa, L234A L235A, N297A, name in Kabat numbering)
heavy: B1 heavy with F31N, N56K
chain: B1 chain
light: B1 light
- ratio of amounts bound Z=Y/X (altered form / CE115HA000): 0.78

B23: CE115HA000 N53S one-arm antibody (antibody, human IgG1, kappa, L234A L235A, N297A, name in Kabat numbering)
heavy: B1 heavy with F31N, N56S
chain: B1 chain
light: B1 light
- ratio of amounts bound Z=Y/X (altered form / CE115HA000): 0.83

B24: CE115HA000 N53H one-arm antibody (antibody, human IgG1, kappa, L234A L235A, N297A, name in Kabat numbering)
heavy: B1 heavy with F31N, N56H
chain: B1 chain
light: B1 light
- ratio of amounts bound Z=Y/X (altered form / CE115HA000): 0.76

B25: CE115HA000 N31H one-arm antibody (antibody, human IgG1, kappa, L234A L235A, N297A, name in Kabat numbering)
heavy: B1 heavy with F31H
chain: B1 chain
light: B1 light
- ratio of amounts bound Z=Y/X (altered form / CE115HA000): 0.68

B28: CE115HA000 N31S one-arm antibody (antibody, human IgG1, kappa, L234A L235A, N297A, name in Kabat numbering)
heavy: B1 heavy with F31S
chain: B1 chain
light: B1 light
- ratio of amounts bound Z=Y/X (altered form / CE115HA000): 0.81

B29: CE115HA000 N31K one-arm antibody (antibody, human IgG1, kappa, L234A L235A, N297A, name in Kabat numbering)
heavy: B1 heavy with F31K
chain: B1 chain
light: B1 light
- ratio of amounts bound Z=Y/X (altered form / CE115HA000): 1.01

B30: CE115HA000 N53G one-arm antibody (antibody, human IgG1, kappa, L234A L235A, N297A, name in Kabat numbering)
heavy: B1 heavy with F31N, N56G
chain: B1 chain
light: B1 light
- ratio of amounts bound Z=Y/X (altered form / CE115HA000): 0.5

B31: CE115HA000 N31Q one-arm antibody (antibody, human IgG1, kappa, L234A L235A, N297A, name in Kabat numbering)
heavy: B1 heavy with F31Q
chain: B1 chain
light: B1 light
- ratio of amounts bound Z=Y/X (altered form / CE115HA000): 0.49

B32: CE115HA000 N53Y one-arm antibody (antibody, human IgG1, kappa, L234A L235A, N297A, name in Kabat numbering)
heavy: B1 heavy with F31N, N56Y
chain: B1 chain
light: B1 light
- ratio of amounts bound Z=Y/X (altered form / CE115HA000): 0.63

More lines, now with the values ahead:

- ratio of amounts bound Z=Y/X (altered form / CE115HA000): 1.03
B5: CE115HA000 N54Y one-arm antibody (antibody, human IgG1, kappa, L234A L235A, N297A, name in Kabat numbering)
heavy: B1 heavy with F31N, N57Y
chain: B1 chain
light: B1 light

- ratio of amounts bound Z=Y/X (altered form / CE115HA000): 0.84
B6: CE115HA000 N54Q one-arm antibody (antibody, human IgG1, kappa, L234A L235A, N297A, name in Kabat numbering)
heavy: B1 heavy with F31N, N57Q
chain: B1 chain
light: B1 light

- ratio of amounts bound Z=Y/X (altered form / CE115HA000): 0.84
B7: CE115HA000 N54S one-arm antibody (antibody, human IgG1, kappa, L234A L235A, N297A, name in Kabat numbering)
heavy: B1 heavy with F31N, N57S
chain: B1 chain
light: B1 light

- ratio of amounts bound Z=Y/X (altered form / CE115HA000): 0.98
B8: CE115HA000 N54G one-arm antibody (antibody, human IgG1, kappa, L234A L235A, N297A, name in Kabat numbering)
heavy: B1 heavy with F31N, N57G
chain: B1 chain
light: B1 light

- ratio of amounts bound Z=Y/X (altered form / CE115HA000): 0.94
B9: CE115HA000 N54L one-arm antibody (antibody, human IgG1, kappa, L234A L235A, N297A, name in Kabat numbering)
heavy: B1 heavy with F31N, N57L
chain: B1 chain
light: B1 light

- ratio of amounts bound Z=Y/X (altered form / CE115HA000): 0.86
B14: CE115HA000 N54A one-arm antibody (antibody, human IgG1, kappa, L234A L235A, N297A, name in Kabat numbering)
heavy: B1 heavy with F31N, N57A
chain: B1 chain
light: B1 light

- ratio of amounts bound Z=Y/X (altered form / CE115HA000): 0.24
B15: CE115HA000 Q50A one-arm antibody (antibody, human IgG1, kappa, L234A L235A, N297A, name in Kabat numbering)
heavy: B1 heavy with F31N, Q50A
chain: B1 chain
light: B1 light

- ratio of amounts bound Z=Y/X (altered form / CE115HA000): 0.73
B17: CE115HA000 N82aD one-arm antibody (antibody, human IgG1, kappa, L234A L235A, N297A, name in Kabat numbering)
heavy: B1 heavy with F31N, N86D
chain: B1 chain
light: B1 light

- ratio of amounts bound Z=Y/X (altered form / CE115HA000): 0.62
B18: CE115HA000 N54D one-arm antibody (antibody, human IgG1, kappa, L234A L235A, N297A, name in Kabat numbering)
heavy: B1 heavy with F31N, N57D
chain: B1 chain
light: B1 light

- ratio of amounts bound Z=Y/X (altered form / CE115HA000): 1.12
B19: CE115HA000 N54F one-arm antibody (antibody, human IgG1, kappa, L234A L235A, N297A, name in Kabat numbering)
heavy: B1 heavy with F31N, N57F
chain: B1 chain
light: B1 light

- ratio of amounts bound Z=Y/X (altered form / CE115HA000): 0.92
B26: CE115HA000 N76S one-arm antibody (antibody, human IgG1, kappa, L234A L235A, N297A, name in Kabat numbering)
heavy: B1 heavy with F31N, N79S
chain: B1 chain
light: B1 light

- ratio of amounts bound Z=Y/X (altered form / CE115HA000): 1.2
B27: CE115HA000 N54K one-arm antibody (antibody, human IgG1, kappa, L234A L235A, N297A, name in Kabat numbering)
heavy: B1 heavy with F31N, N57K
chain: B1 chain
light: B1 light
